Experimental data published in the supplement of paper PMC9732359.
± gives the uncertainty stated by the source.

Experiment: protein stability index of a GFP-peptide fusion (yeast GPS) (PSI 1-4); higher = more stable; sorted into four equal gates, so the index is relative within each strain
Outline: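 The protein stability index combines read frequencies across sorting gates, each weighted by its gate number and then summed. To obtain those frequencies, a pooled yeast library of GFP fusions to tiled 17-residue yeast protein peptides, on a plasmid also expressing Cherry, was grown to mid-log phase in leucine-free medium. The cells were sorted into four equal gates by GFP/Cherry ratio before plasmid amplification by PCR and Illumina sequencing.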

Sequence	protein stability index (doa10∆)	protein stability index (pdr5∆)	protein stability index (san1∆)	protein stability index (ubr1∆)
IDEHIDLGIKYDPSIGI [RPL11A]	2.84 ± 0.035	3.06 ± 0.039	2.91 ± 0.03	2.903 ± 0.029
VTNDDKSDDDDHTVDEI [SRB8]	2.67 ± 0.077	2.8 ± 0.085	3.07 ± 0.094	3.01 ± 0.045
FNATVDETKGFDDNDSG [MED2]	3.14 ± 0.09	3.17 ± 0.078	3.25 ± 0.066	3.29 ± 0.078
DFLRYINIKYLRLDGHT [SNF2]	2.5 ± 0.071	1.32 ± 0.062	1.4 ± 0.14	1.65 ± 0.06
LVIKSGKYTLGYKSTVK [RPL30]	2.75 ± 0.079	2.96 ± 0.061	2.5 ± 0.079	2.87 ± 0.05
LFSSRRLQAKRLKDVEW [RMP1]	2.62 ± 0.084	2.79 ± 0.059	3.1 ± 0.079	1.68 ± 0.065
VDPVYKDVAKPTGPKTA [FAS2]	2.99 ± 0.096	3.05 ± 0.1	2.52 ± 0.08	2.34 ± 0.069
KKTRIIPRHLQLAIRND [HTA1]	2.47 ± 0.088	2.69 ± 0.078	3.03 ± 0.11	2.05 ± 0.081
SASDALKGRVVEVCLAD [RPS1A]	2.46 ± 0.06	2.82 ± 0.093	2.35 ± 0.081	2.43 ± 0.055
RQMNLVITLLNNSSITL [YCS4]	1.37 ± 0.05	1.18 ± 0.039	1.19 ± 0.08	1.35 ± 0.035
IKIEPSADDDVNNGNIP [SIR3]	2.12 ± 0.098	2.44 ± 0.14	2.58 ± 0.15	2.76 ± 0.13
VDIEYTRGRNIIMHKDV [RET1]	2.44 ± 0.11	2.55 ± 0.13	2.92 ± 0.064	2.84 ± 0.1
RGDSTETSSFGSMFSGD [RRI1]	3.5 ± 0.087	3.27 ± 0.16	3.35 ± 0.053	3.27 ± 0.15
KIDSHVVLSFSGLNADS [PRE6]	1.8 ± 0.062	1.72 ± 0.069	2.48 ± 0.073	2.19 ± 0.054
TTSEATANDRQINNVHL [RPN4]	2.97 ± 0.11	2.91 ± 0.079	2.49 ± 0.087	2.7 ± 0.097
INYLALNAANYNIDANV [ECM29]	–	2.76 ± 0.2	–	2.72 ± 0.13
NRLEKEQSVKTQNSRHY [LIN1]	2.44 ± 0.13	2.85 ± 0.12	2.52 ± 0.13	2.49 ± 0.096
EINNLIQLPASLAATYS [ARP9]	1.59 ± 0.063	1.87 ± 0.045	1.96 ± 0.07	1.65 ± 0.047
NTLGKGQNCLDIDGIMD [SNU114]	3.3 ± 0.23	3.15 ± 0.1	3.02 ± 0.12	3.2 ± 0.11
FNKSAELSRIENEVENI [YCS4]	3.51 ± 0.17	3.4 ± 0.19	3.27 ± 0.06	3.39 ± 0.17
VSIKDSTGCVVGLSQPD [YMR129W/POM152]	2.09 ± 0.047	2.32 ± 0.058	2.05 ± 0.066	2.28 ± 0.036
TAEDSWAVISAFFREKG [RPB2]	3.26 ± 0.12	3.02 ± 0.073	2.61 ± 0.068	2.94 ± 0.063
SVIPLKGRYAPETGDHV [RRP4]	2.53 ± 0.059	2.52 ± 0.052	2.67 ± 0.073	2.69 ± 0.041
VRSLLEVVQTGAKNIEI [PRE6]	3.38 ± 0.14	3.29 ± 0.098	3.06 ± 0.074	3.21 ± 0.069
SKVSIEQRKEAAEFVLA [RPN7]	2.12 ± 0.13	2.49 ± 0.15	2.45 ± 0.09	2.45 ± 0.06
QAISYLHKLQRMRLRAL [GRR1]	1.77 ± 0.057	1.74 ± 0.053	1.8 ± 0.055	1.49 ± 0.028
EKLINNSDDCMMEEIIN [ECM29]	3.36 ± 0.11	3.1 ± 0.11	3.1 ± 0.066	3.13 ± 0.12

Sequence	protein stability index (doa10∆)	protein stability index (pdr5∆)	protein stability index (san1∆)	protein stability index (ubr1∆)
SKMYNTDKKAFLGALKY [PRP8]	2.52 ± 0.092	2.27 ± 0.071	2.47 ± 0.1	2.63 ± 0.11
PRGVLLYGPPGTGKTML [RPT3]	3.07 ± 0.089	2.57 ± 0.11	2.9 ± 0.081	2.72 ± 0.074
PAFSNSNGFNNVTFGSK [YMR153W/NUP53]	2.68 ± 0.054	2.96 ± 0.067	3.1 ± 0.037	3.13 ± 0.048
NKRLSRGKKGLKKKVVD [RPS1B]	–	3.44 ± 0.15	2.75 ± 0.24	3.38 ± 0.14
DRNNSTNQIFQSRRYNL [SIN4]	2.78 ± 0.047	2.93 ± 0.049	2.71 ± 0.053	2.83 ± 0.039
ELENFLDNFETKTEALL [YJL041W/NSP1]	2.62 ± 0.12	2.91 ± 0.14	2.72 ± 0.15	1.81 ± 0.1
IVMQLRKCCNHPYLFEG [ISW2]	2.78 ± 0.087	2.53 ± 0.11	2.74 ± 0.069	2.78 ± 0.11
LEKVVPLINVVVDILSA [BRR2]	–	–	–	1.26 ± 0.19
KIESLAGGGESDSALIL [UBP6]	3.25 ± 0.18	–	3.49 ± 0.11	3.12 ± 0.25
SVDITGGPWFTDGELDI [RPC34]	3.04 ± 0.14	3.43 ± 0.12	3.12 ± 0.13	3.18 ± 0.078
TDLSGKETIARVTGGMK [RPS14A]	3.06 ± 0.087	3.12 ± 0.082	2.79 ± 0.056	2.92 ± 0.061
LTYAQQQLNKQRQDFER [SNF6]	2.49 ± 0.073	2.44 ± 0.071	2.17 ± 0.083	2.6 ± 0.038
EIYTVEDRPPEYWAQRK [ISW2]	3.44 ± 0.23	3.14 ± 0.14	–	3.31 ± 0.13
SMNVTLGVPRIKEIINA [RPO31]	2.71 ± 0.066	2.56 ± 0.048	2.13 ± 0.065	2.47 ± 0.046
VMKDIYKVENVTLYWNN [ESC2]	1.42 ± 0.088	1.62 ± 0.08	1.47 ± 0.11	1.73 ± 0.084
PGPLPDTDSKPSSQSQN [YLR018C/POM34]	3.06 ± 0.079	3.15 ± 0.061	3.17 ± 0.063	2.98 ± 0.061
YSKAAEPHAVSLAWSAD [ASC1]	2.81 ± 0.19	2.87 ± 0.084	2.8 ± 0.065	2.72 ± 0.078
ETANVASLNLLQLAPGA [RPL4A]	2.84 ± 0.14	3.02 ± 0.18	3.29 ± 0.078	3.27 ± 0.11
ETIIEADKSLPSSMATL [YJR042W/NUP85]	2.75 ± 0.083	2.85 ± 0.061	3 ± 0.046	2.91 ± 0.055
HVESDKITAKTQHEEEE [IRR1]	2.85 ± 0.064	2.96 ± 0.088	3.09 ± 0.092	2.81 ± 0.11
TTARAKARAKKTKKEKG [RPN2]	3.31 ± 0.15	3.63 ± 0.2	3.16 ± 0.079	3.21 ± 0.089
KGKTPKNAAESSYMGKH [PRP28]	3.18 ± 0.12	3.22 ± 0.14	2.86 ± 0.16	3.33 ± 0.085
IRAHQTELTHHLLPRNE [QCR7]	2.99 ± 0.1	3.2 ± 0.072	3.02 ± 0.064	2.92 ± 0.065
DKVSSCFPQYVNSKQGA [NNF1]	2.07 ± 0.088	2.23 ± 0.091	2.11 ± 0.12	2.95 ± 0.092
HTTQIVNLEDNTQDLLL [YML103C/NUP188]	3.21 ± 0.11	3.35 ± 0.12	3.27 ± 0.069	3.07 ± 0.086
KQDKTLQKVENQTIKEA [YIL149C/MLP2]	3.22 ± 0.072	3.15 ± 0.07	3.15 ± 0.071	3.17 ± 0.062
